The values that follow come from PMC3325936.

In assay [1] the target is GST:Anillin (608–940) (human) (UniProt Q9NQW6). Nature of the assay: pull-down; lysates of transfected HEK-293 cells diluted by 0.5-fold, 0.25-fold or 0.05-fold, pulled down with 200 nM GST-tagged AHD; western blot for Myc, % bound protein. (Immunoblotting shows a protein as a band on a membrane.)
For assay [2] the target is unchanged. Kind of assay: pull-down; purified MBP- or GST-tagged anillin fragments (200 nM) as bait; lysates of transfected HEK-293 cells; 50 mM Tris pH7.6, 150 mM NaCl, 5 mM MgCl2, 0.5% Triton X-100, 1 mM DTT, 4°C; western blot for Myc.

Sequence of UniProt Q9NQW6 (Q9NQW6 645-977): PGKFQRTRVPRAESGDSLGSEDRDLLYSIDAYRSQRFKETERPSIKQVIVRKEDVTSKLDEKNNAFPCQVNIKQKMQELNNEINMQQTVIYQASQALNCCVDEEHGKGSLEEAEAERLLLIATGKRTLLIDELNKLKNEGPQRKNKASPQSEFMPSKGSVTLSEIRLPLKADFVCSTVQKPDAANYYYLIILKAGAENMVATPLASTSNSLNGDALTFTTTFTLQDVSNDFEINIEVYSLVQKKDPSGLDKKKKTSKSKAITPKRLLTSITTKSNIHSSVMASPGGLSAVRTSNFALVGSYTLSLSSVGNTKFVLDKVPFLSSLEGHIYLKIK

Myc:Ect2 (421–883) (domain or fragment) registered a percent of protein bound at the lowest dilution in assay [1] of 38%.

For “Myc:Ect2 (421–883; D668G) (domain or fragment)”, in assay [2], the fold change of the amount pulled down against wild-type Ect2 (C-term) is 0.5 fold lower.
